Assay results published in US20190382504A1 (EUREKA THERAPEUTICS, published 2019).

B1: phage clone #52, anti-ESO157/HLA-A*02:01 scFv displayed on phage (scFv, V domains shown)
VH: QVQLVQSGAEVKKPGASVKVSCKASGYTFTSYGISWVRQAPGQGLEWMGWISAYNGNTNYAQKLQGRVTMTTDTSTSTAYMELRSLRSDDTAVYYCARYSGYYAGDSWGQGTLVTVSS
VL: QSVLTQPPSVSGAPGQRVTISCTGSSSNIGAGYDVHWYQQLPGTAPKLLIYGDTNRPSGVPDRISGSKSGTSASLAITGLQAEDEADYYCQSYDSNLYTYVFGTGTKVTVLG
B2: phage clone #66, anti-ESO157/HLA-A*02:01 scFv displayed on phage (scFv, V domains shown)
VH: EVQLVESGAEVKRPGASVKVSCKASGYTFTSYGISWVRQAPGQGLEWMGRFIPNLNKGNSAHKFEGRVSFTADKFTNTAYMELRGLKSDDTAVYYCARGDYGSDQWGQGTLVTVSS
VL: QSVLTQPPSVSGAPGQRVTISCTGSSSNIGAGYDVHWYQQLPGTAPKLLIYGNSNRPSGVPDRFSGSKSGTSASLAITGLQAEDEADYYCQSYDSSLSGSWVFGGGTKLTVLG
B3: phage clone #116, anti-ESO157/HLA-A*02:01 scFv displayed on phage (scFv, V domains shown)
VH: QVQLVQSGPEVKKPGASMKVSCKASGYTFTKYGISWVRQAPGQGLEWMGWISADSGKTSYAQNLQGRVSLTIDTSTATAYMELRSLRSDDTAVYYCARDDDSWGQGTLVTVSS
VL: QSVLTQPPSVSAAPGQKVTISCSGSSSNIGNNYVSWYQQLPGTAPKLLIYDNNKRPSGIPDRFSGSKSGTSATLGITGLQTGDEADYYCGTWDSSLSAEVFGTGTKVTVLG
B4: ESO157 BsAb #35 (anti-ESO157/HLA-A*02:01 scFv x anti-human CD3epsilon scFv, single chain) (bispecific antibody, not shown: small tags and cut ends)
scFv: QSVVTQPPSVSAAPGQKVTISCSGSSSNIGNNYVSWYQQLPGTAPKLLIYDNNKRPSGIPDRFSGSKSGTSATLGITGLQTGDEADYYCGTWDSSLSAWVFGGGTKLTVLGSRGGGGSGGGGSGGGGSLEMAQVQLVQSGAEVKKPGSSVKVSCKASGDTFSSYSISWVRQAPGQGLEWMGRIIPILGIANYAQKYQGRVTLSADKSTSTSYMELNSLRSEDTAVYYCARDWSYSIDYWGQGTLVTVSS
notes: also called NY-ESO-1 BsAb #35
B5: ESO157 BsAb #52 (anti-ESO157/HLA-A*02:01 scFv x anti-human CD3epsilon scFv, single chain) (bispecific antibody)
chain: QSVLTQPPSVSGAPGQRVTISCTGSSSNIGAGYDVHWYQQLPGTAPKLLIYGDTNRPSGVPDRISGSKSGTSASLAITGLQAEDEADYYCQSYDSNLYTYVFGTGTKVTVLGSRGGGGSGGGGSGGGGSLEMAQVQLVQSGAEVKKPGASVKVSCKASGYTFTSYGISWVRQAPGQGLEWMGWISAYNGNTNYAQKLQGRVTMTTDTSTSTAYMELRSLRSDDTAVYYCARYSGYYAGDSWGQGTLVTVSS
B6: ESO157 BsAb #66 (anti-ESO157/HLA-A*02:01 scFv x anti-human CD3epsilon scFv, single chain) (bispecific antibody)
chain: QSVLTQPPSVSGAPGQRVTISCTGSSSNIGAGYDVHWYQQLPGTAPKLLIYGNSNRPSGVPDRFSGSKSGTSASLAITGLQAEDEADYYCQSYDSSLSGSWVFGGGTKLTVLGSRGGGGSGGGGSGGGGSLEMAEVQLVESGAEVKRPGASVKVSCKASGYTFTSYGISWVRQAPGQGLEWMGRFIPNLNKGNSAHKFEGRVSFTADKFTNTAYMELRGLKSDDTAVYYCARGDYGSDQWGQGTLVTVSS

Tests used:
[1] = molecular target: T1, Bio-C9V mutant; test: phage ELISA: streptavidin plate coated with biotinylated peptide/HLA-A*02:01 monomer, phage detected with HRP-conjugated anti-M13 antibody, absorbance at 450 nm
T1 construct: also called biotinylated ESO157 C9V/HLA-A*02:01 complex monomer

[2] = molecular target: ESO157 A4 peptide (…)/HLA-A*02:01 complex on T2 cells (human); test: FACS, peptide-pulsed T2 cells
[3] = molecular target: T2, ESO157 wild type peptide (…)/HLA-A*02:01 complex on cells (human); test: FACS, peptide-pulsed T2 cells
T2 construct: also called ESO157-loaded T2 cells

[4] = molecular target: ESO157 A1 peptide (…)/HLA-A*02:01 complex on T2 cells (human); test: FACS, peptide-pulsed T2 cells
[5] = molecular target: ESO157 A8 peptide (…)/HLA-A*02:01 complex on T2 cells (human); test: FACS, peptide-pulsed T2 cells
[6] = molecular target: ESO157 A7 peptide (…)/HLA-A*02:01 complex on T2 cells (human); test: FACS, peptide-pulsed T2 cells
[7] = molecular target: T3, HLA-A*02:01 on T2 cells without peptide loading (human); test: FACS, peptide-pulsed T2 cells
T3 construct: TAP-deficient T2 cells, no peptide added; also called No peptide; T2 cells with no peptide loaded

[8] = molecular target: ESO157 A6 peptide (…)/HLA-A*02:01 complex on T2 cells (human); test: FACS, peptide-pulsed T2 cells
[9] = molecular target: ESO157 A5 peptide (…)/HLA-A*02:01 complex on T2 cells (human); test: FACS, peptide-pulsed T2 cells
[10] = molecular target: ESO157 A3 peptide (…)/HLA-A*02:01 complex on T2 cells (human); test: FACS, peptide-pulsed T2 cells
[11] = molecular target: T4, biotinylated recombinant ESO157 wild type peptide/HLA-A*02:01 complex monomer (human); test: SPR (Biacore X100), biotinylated pMHC on streptavidin chip, BsAb as analyte
T4 construct: also called recombinant ESO157/HLA-A*02:01 complex; biotin-labelled ESO157 wild type peptide/HLA-A*02:01 complex

[12] = molecular target: biotinylated recombinant ESO157/HLA-A*02:03 complex (human); test: BLI (Octet QK), biotinylated pMHC on streptavidin sensor, BsAb 10 ug/mL
[13] = molecular target: biotinylated recombinant ESO157/HLA-A*02:06 complex (human); test: as above
[14] = molecular target: biotinylated recombinant ESO157/HLA-A*02:02 complex (human); test: as above
[15] = molecular target: biotinylated recombinant ESO157/HLA-A*02:05 complex (human); test: as above
[16] = molecular target: biotinylated recombinant ESO157/HLA-A*02:02 complex (human); test: as above; remark: listed apart in the source
[17] = molecular target: biotinylated recombinant ESO157/HLA-A*02:11 complex (human); test: as above

Binder	binding result [1]	MFI [2]	MFI [3]	MFI [4]	MFI [5]	MFI [6]	MFI [7]	MFI [8]	MFI [9]	MFI [10]	Kd [11] [nM]	koff [11] [s⁻¹]	kon [11] [M⁻¹ s⁻¹]	Kd [12] [nM]	Kd [13] [nM]	Kd [14] [nM]	Kd [15] [nM]	Kd [16] [nM]	Kd [17] [nM]
B1	binds	4740	14500	14900	19200	9890	113	1880	107	17700	–	–	–	–	–	–	–	–	–
B2	binds	48100	67000	82400	90500	64400	157	19800	748	38400	–	–	–	–	–	–	–	–	–
B3	binds	1150	11300	19600	3400	14400	502	2640	1340	16500	–	–	–	–	–	–	–	–	–
B4	–	–	–	–	–	–	–	–	–	–	14.1	0.00128	90900	50	78	22	–	–	–
B5	–	–	–	–	–	–	–	–	–	–	–	–	–	82	140	–	26	63	–
B6	–	–	–	–	–	–	–	–	–	–	–	–	–	47	58	–	33	25	48
